{
  "source": "patent US20120028913A1",
  "about": "(BIOKINE THERAPEUTICS, published 2012)",
  "key": {"human MIG [1]": {"molecular_target": "T1, human MIG (human, UniProt Q07325 23-125)", "T1 sequence (looked up)": "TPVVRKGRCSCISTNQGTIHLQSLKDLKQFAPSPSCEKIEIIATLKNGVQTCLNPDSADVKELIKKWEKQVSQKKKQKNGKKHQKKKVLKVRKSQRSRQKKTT", "experiment": "cell-based or functional assay"}, "[2]": {"molecular_target": "T2, human IL-8, (72 amino acids) (human, UniProt P10145 28-99)", "T2 sequence (looked up)": "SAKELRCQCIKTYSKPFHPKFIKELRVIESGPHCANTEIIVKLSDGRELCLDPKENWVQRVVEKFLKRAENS", "experiment": "cell-based or functional assay"}, "human Eotaxin [3]": {"molecular_target": "T3, human Eotaxin (human, UniProt P51671 24-97)", "T3 sequence (P51671 24-97 limits assumed)": "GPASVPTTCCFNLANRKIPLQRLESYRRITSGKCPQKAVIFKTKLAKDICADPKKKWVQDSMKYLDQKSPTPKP", "experiment": "cell-based or functional assay"}, "Human MCP-1 (MCAF) [4]": {"molecular_target": "T4, Human MCP-1 (MCAF) (human, UniProt P13500 24-99)", "T4 construct": "bought recombinant chemokine", "T4 sequence (P13500 24-99 limits assumed)": "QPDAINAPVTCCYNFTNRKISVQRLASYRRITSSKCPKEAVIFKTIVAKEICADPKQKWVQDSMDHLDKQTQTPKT", "experiment": "Bound chemokines (at least); screen vs control proteins"}, "human MIG [5]": {"molecular_target": "T1, human MIG", "experiment": "Bound chemokines (at least); screen vs control proteins"}, "human Eotaxin [6]": {"molecular_target": "T3, human Eotaxin", "experiment": "Bound chemokines (at least); screen vs control proteins"}, "Human MCP-1 (MCAF) [7]": {"molecular_target": "T4, Human MCP-1 (MCAF)", "experiment": "Bound chemokines (at least); screen vs control proteins", "remark": "listed apart in the source"}, "[8]": {"molecular_target": "T2, human IL-8, (72 amino acids)", "experiment": "Bound chemokines (at least); screen vs control proteins"}, "Human SDF-1α [9]": {"molecular_target": "T5, Human SDF-1α (human, UniProt P48061-2 22-89)", "T5 construct": "bought recombinant chemokine; also called SDF-1 alpha", "T5 sequence (P48061 22-89 limits assumed)": "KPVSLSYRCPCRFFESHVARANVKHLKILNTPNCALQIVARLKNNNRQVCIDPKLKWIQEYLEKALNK", "experiment": "Bound chemokines (at least); screen vs control proteins"}, "human Eotaxin [10]": {"molecular_target": "T3, human Eotaxin", "experiment": "peptide-containing carriers, binding vs control proteins (FIG. 1)"}, "[11]": {"molecular_target": "T2, human IL-8, (72 amino acids)", "experiment": "Bound chemokines (at least); screen vs control proteins", "remark": "listed apart in the source"}, "Human SDF-1α [12]": {"molecular_target": "T5, Human SDF-1α", "experiment": "ELISA on chemokine-coated plates, fold over control proteins (FIG. 3)", "protocol": "(§1) NUNC-Immuno maxisorp plates (Cat. No. 4-42404) were coated with the appropriate chemokine (0.1 ml/well, 0.1-1.0 μg/ml in 0.1 M NaHCO₃, pH 8.6), overnight at 4° C. The plates were then blocked with 0.2 ml/well of blocking buffer (5 mg/ml BSA in 0.1 NaHCO₃). Control wells were treated with blocking buffer alone, with no addition of target protein (chemokine). The plates were washed 6 times with PBST (0.1% Tween 20 in PBS), followed by incubation for 45 minutes at room temperature with 10-fold serial dilutions of individual synthetic peptides (10 pg-10 μg) with 1% BSA (PBST-BSA)/well. After the plates were washed 6 times with PBST, the bound peptides were probed by HRP-SA Conjugate, diluted 1:10,000 to 1:20,000 in PBST-BSA, 0.1 ml/well for 45 minutes at room temperature. The target-bound synthetic peptides probed with HRP-SA were quantified by DAKO TMB one-step substrate system, followed by the addition of stop solution, HCl—H₂SO₄ mixture (0.1 ml/well) ON HCl, 3N H₂SO₄). The results were analyzed by ELISA reader at OD₄₅₀.\n(§2) As discussed above, the level of binding was calculated by comparing binding of the peptides to the chemokines with peptide binding to controls. Level of control binding was defined as level 1 (up to a one-fold increase in binding). This control binding level is illustrated in the Figure as a dashed line."}, "human MIG [13]": {"molecular_target": "T1, human MIG", "experiment": "ELISA on chemokine-coated plates, fold over control proteins (FIG. 3)", "protocol": "as §1, §2"}, "[14]": {"molecular_target": "T2, human IL-8, (72 amino acids)", "experiment": "ELISA on chemokine-coated plates, fold over control proteins (FIG. 3)", "protocol": "as §1, §2"}, "Human MCP-1 (MCAF) [15]": {"molecular_target": "T4, Human MCP-1 (MCAF)", "experiment": "ELISA on chemokine-coated plates, fold over control proteins (FIG. 3)", "protocol": "as §1, §2"}, "human Eotaxin [16]": {"molecular_target": "T3, human Eotaxin", "experiment": "ELISA on chemokine-coated plates, fold over control proteins (FIG. 3)", "protocol": "as §1, §2"}},
  "note": "Bridges are numbered along the chain shown (N, C = ends). Where no end group is shown, it is not given here. The star is where a group is joined. Biotin = O=C1N[C@H]2[C@H](CS[C@H]2CCCCC(=O)*)N1",
  "data": [
    {"binder": "SIPSHSIHSAKAGGGSK(Biotin)G", "note": "[BKT-P2]", "values": [
      {"measurement": "Level of Antagonistic Effect (T cell arrest under laminar flow on VCAM-1 plus chemokine)", "setting": "human MIG [1]", "value": 50, "unit": "%"}
    ]},
    {"binder": "HHFHLPKLRPPVGGGSK(Biotin)G", "note": "[BKT-P45]", "values": [
      {"measurement": "Level of Antagonistic Effect (T cell arrest under laminar flow on VCAM-1 plus chemokine)", "setting": "human MIG [1]", "value": 20, "unit": "%"},
      {"measurement": "Level of Antagonistic Effect (T cell arrest under laminar flow on VCAM-1 plus chemokine)", "setting": "[2]", "value": 100, "unit": "%"}
    ]},
    {"binder": "SAGHIHEAHRPLGGGSK(Biotin)G", "note": "[BKT-P39]", "values": [
      {"measurement": "Level of Antagonistic Effect (T cell arrest under laminar flow on VCAM-1 plus chemokine)", "setting": "human Eotaxin [3]", "value": 100, "unit": "%"}
    ]},
    {"binder": "ACHASLKHRC (not fully specified (bridges); cysteine pairing not given here)", "note": "[BKT-P48]", "values": [
      {"measurement": "binding result", "setting": "Human MCP-1 (MCAF) [4]", "value": "binds"}
    ]},
    {"binder": "AHSLKSITNHGL", "note": "[BKT-P44]", "values": [
      {"measurement": "binding result", "setting": "Human MCP-1 (MCAF) [4]", "value": "binds"}
    ]},
    {"binder": "ESDLTHALHWLG", "note": "[BKT-P51]", "values": [
      {"measurement": "binding result", "setting": "Human MCP-1 (MCAF) [4]", "value": "binds"}
    ]},
    {"binder": "HSACHASLKHRC (not fully specified (bridges); cysteine pairing not given here)", "note": "[BKT-P49]", "values": [
      {"measurement": "binding result", "setting": "Human MCP-1 (MCAF) [4]", "value": "binds"}
    ]},
    {"binder": "WSAHIVPYSHKP", "note": "[BKT-P52]", "values": [
      {"measurement": "binding result", "setting": "Human MCP-1 (MCAF) [4]", "value": "binds"}
    ]},
    {"binder": "YATQHNWRLKHE", "note": "[BKT-P53]", "values": [
      {"measurement": "binding result", "setting": "Human MCP-1 (MCAF) [4]", "value": "binds"}
    ]},
    {"binder": "CAHLSPHKC (not fully specified (bridges); cysteine pairing not given here)", "note": "[BKT-P50]", "values": [
      {"measurement": "binding result", "setting": "human MIG [5]", "value": "binds"}
    ]},
    {"binder": "GVHKHFYSRWLG", "note": "[BKT-P33]", "values": [
      {"measurement": "binding result", "setting": "human Eotaxin [6]", "value": "binds"}
    ]},
    {"binder": "SVQTRPLFHSHF", "note": "[BKT-P34]", "values": [
      {"measurement": "binding result", "setting": "human Eotaxin [6]", "value": "binds"}
    ]},
    {"binder": "VHTSLLQKHPLP", "note": "[BKT-P26]", "values": [
      {"measurement": "binding result", "setting": "Human MCP-1 (MCAF) [4]", "value": "binds"}
    ]},
    {"binder": "GDFNSGHHTTTR", "note": "[BKT-P27]", "values": [
      {"measurement": "binding result", "setting": "Human MCP-1 (MCAF) [7]", "value": "binds"}
    ]},
    {"binder": "HHTWDTRIWQAF", "note": "[BKT-P55]", "values": [
      {"measurement": "binding result", "setting": "Human MCP-1 (MCAF) [7]", "value": "binds"}
    ]},
    {"binder": "LDYPIPQTVLHH", "note": "[BKT-P46]", "values": [
      {"measurement": "binding result", "setting": "Human MCP-1 (MCAF) [7]", "value": "binds"}
    ]},
    {"binder": "LLADTTHHRPWP (the carrier is not described)", "note": "[BKT-P37]", "values": [
      {"measurement": "binding result", "setting": "[8]", "value": "binds"}
    ]},
    {"binder": "TRLVPSRYYHHP", "note": "[BKT-P47]", "values": [
      {"measurement": "binding result", "setting": "Human MCP-1 (MCAF) [7]", "value": "binds"}
    ]},
    {"binder": "CHHNLSWEC (not fully specified (bridges); cysteine pairing not given here)", "note": "[BKT-P56]", "values": [
      {"measurement": "binding result", "setting": "Human SDF-1α [9]", "value": "binds"}
    ]},
    {"binder": "LGFDPTSTRFYT (the carrier is not described; also called BKT-P38)", "note": "[BKT-P22/38]", "values": [
      {"measurement": "binding result", "setting": "human Eotaxin [10]", "value": "binds"}
    ]},
    {"binder": "SAISDHRAHRSH", "note": "[BKT-P40]", "values": [
      {"measurement": "binding result", "setting": "[11]", "value": "binds"}
    ]},
    {"binder": "ACKESATYFCGGGSK(Biotin)G (disulfide 2-10 (inferred), general synthetic cyclic format applied; also called control peptide)", "note": "[BKT-P18]", "values": [
      {"measurement": "binding result", "setting": "Human SDF-1α [12]", "value": "no binding"},
      {"measurement": "binding result", "setting": "human MIG [13]", "value": "no binding"},
      {"measurement": "binding result", "setting": "[14]", "value": "no binding"},
      {"measurement": "binding result", "setting": "Human MCP-1 (MCAF) [15]", "value": "no binding"},
      {"measurement": "binding result", "setting": "human Eotaxin [16]", "value": "no binding"}
    ]}
  ]
}
